Results as given in patent US20230414590.

Molecular target: T1, iron-sulfur cluster assembly (ISCU) protein, Q9H1K1
T1 chain: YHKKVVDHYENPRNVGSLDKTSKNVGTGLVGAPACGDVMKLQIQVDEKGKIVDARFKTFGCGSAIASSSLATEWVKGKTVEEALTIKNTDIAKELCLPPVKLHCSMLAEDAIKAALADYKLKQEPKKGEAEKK

B1: glutathione S-transferase P (GSTP1) (protein)
chain: PPYTVVYFPVRGRCAALRMLLADQGQSWKEEVVTVETWQEGSLKASCLYGQLPKFQDGDLTLYQSNTILRHLGRTLGLYGKDQQEAALVDMVNDGVEDLRCKYISLIYTNYEAGKDDYVKALPGQLKPFETLLSQNQGGKTFIVGDQISFADYNLLDLLLIHEVLAPGCLDAFPLLSAYVGRLSARPKLKAFLASPEYVNLPINGNGKQ
In the case of B1, the “ISCU glutathionylation (α-GSH immunoblot after α-ISCU immunoprecipitation) in PAECs with GSTP1 knockdown” value is reported as “with GSTP1 knockdown, α-ISCU immunoprecipitation revealed a concomitant reduction of GSTP1 pulldown and glutathionylated ISCU in favor of non-glutathionylated ISCU”.
